Measurements taken from PMC6310800, “Exploiting correlated molecular-dynamics networks to counteract enzyme activity–stability trade-off” (Proceedings of the National Academy of Sciences of the …, 2018).

Substrate: O=Cc1cccc(C(=O)O)c1
Experiment: initial rates by HPLC, Michaelis-Menten fit
Assay type: biochemical, Escherichia coli
Conditions: 50 mM Li-hydroxypyruvate, 50 mM Tris-HCl pH 7.0, 2.4 mM ThDP, 9 mM MgCl2, 22 °C
Source text: initial rates by HPLC, Michaelis-Menten fit on transketolase (TK)

| Protein | Km | kcat | kcat/Km |
| --- | --- | --- | --- |
| transketolase (TK) (Escherichia coli K-12; A282P/D469T/G506A/H192P/I365L/R520Q/S385Y) (protein, recombinant from plasmid pQR791, purified; homodimer) MSSRKELANAIRALSMDAVQKAKSGHPGAPMGMADIAEVLWRDFLKHNPQNPSWADRDRFVLSNGHGSMLIYSLLHLTGYDLPMEELKNFRQLHSKTPGHPEVGYTAGVETTTGPLGQGIANAVGMAIAEKTLAAQFNRPGHDIVDHYTYAFMGDGCMMEGISHEVCSLAGTLKLGKLIAFYDDNGISIDGPVEGWFTDDTAMRFEAYGWHVIRDIDGHDAASIKRAVEEARAVTDKPSLLMCKTIIGFGSPNKAGTHDSHGAPLGDAEIALTREQLGWKYPPFEIPSEIYAQWDAKEAGQAKESAWNEKFAAYAKAYPQEAAEFTRRMKGEMPSDFDAKAKEFIAKLQANPAKIASRKASQNALEAFGPLLPEFLGGSADLAPYNLTLWSGSKAINEDAAGNYIHYGVREFGMTAIANGISLHGGFLPYTSTFLMFVEYARNAVRMAALMKQRQVMVYTHDSIGLGETGPTHQPVEQVASLRVTPNMSTWRPCDQVESAVAWKYAVERQDGPTALILSQQNLAQQERTEEQLANIARGGYVLKDCAGQPELIFIATGSEVELAVAAYEKLTAEGVKARVVSMPSTDAFDKQDAAYRESVLPKAVTARVAVEAGIADYWYKYVGLNGAIVGMTTFGESAPAELLFEEFGFTVDNVVAKAKELL | 2.3 (0.3) mM | 3.8 s⁻¹ | 1650 M⁻¹ s⁻¹ |
| transketolase (TK) (Escherichia coli K-12; D469T/R520Q/S385Y) (protein, recombinant from plasmid pQR791, purified; homodimer) MSSRKELANAIRALSMDAVQKAKSGHPGAPMGMADIAEVLWRDFLKHNPQNPSWADRDRFVLSNGHGSMLIYSLLHLTGYDLPMEELKNFRQLHSKTPGHPEVGYTAGVETTTGPLGQGIANAVGMAIAEKTLAAQFNRPGHDIVDHYTYAFMGDGCMMEGISHEVCSLAGTLKLGKLIAFYDDNGISIDGHVEGWFTDDTAMRFEAYGWHVIRDIDGHDAASIKRAVEEARAVTDKPSLLMCKTIIGFGSPNKAGTHDSHGAPLGDAEIALTREQLGWKYAPFEIPSEIYAQWDAKEAGQAKESAWNEKFAAYAKAYPQEAAEFTRRMKGEMPSDFDAKAKEFIAKLQANPAKIASRKASQNAIEAFGPLLPEFLGGSADLAPYNLTLWSGSKAINEDAAGNYIHYGVREFGMTAIANGISLHGGFLPYTSTFLMFVEYARNAVRMAALMKQRQVMVYTHDSIGLGETGPTHQPVEQVASLRVTPNMSTWRPCDQVESAVAWKYGVERQDGPTALILSQQNLAQQERTEEQLANIARGGYVLKDCAGQPELIFIATGSEVELAVAAYEKLTAEGVKARVVSMPSTDAFDKQDAAYRESVLPKAVTARVAVEAGIADYWYKYVGLNGAIVGMTTFGESAPAELLFEEFGFTVDNVVAKAKELL | 2.3 (0.3) mM | 2.8 s⁻¹ | 1220 M⁻¹ s⁻¹ |
| transketolase (TK) (Escherichia coli K-12; A282P/D469T/G506A/H192P/R520Q/S385Y) (protein, recombinant from plasmid pQR791, purified; homodimer) MSSRKELANAIRALSMDAVQKAKSGHPGAPMGMADIAEVLWRDFLKHNPQNPSWADRDRFVLSNGHGSMLIYSLLHLTGYDLPMEELKNFRQLHSKTPGHPEVGYTAGVETTTGPLGQGIANAVGMAIAEKTLAAQFNRPGHDIVDHYTYAFMGDGCMMEGISHEVCSLAGTLKLGKLIAFYDDNGISIDGPVEGWFTDDTAMRFEAYGWHVIRDIDGHDAASIKRAVEEARAVTDKPSLLMCKTIIGFGSPNKAGTHDSHGAPLGDAEIALTREQLGWKYPPFEIPSEIYAQWDAKEAGQAKESAWNEKFAAYAKAYPQEAAEFTRRMKGEMPSDFDAKAKEFIAKLQANPAKIASRKASQNAIEAFGPLLPEFLGGSADLAPYNLTLWSGSKAINEDAAGNYIHYGVREFGMTAIANGISLHGGFLPYTSTFLMFVEYARNAVRMAALMKQRQVMVYTHDSIGLGETGPTHQPVEQVASLRVTPNMSTWRPCDQVESAVAWKYAVERQDGPTALILSQQNLAQQERTEEQLANIARGGYVLKDCAGQPELIFIATGSEVELAVAAYEKLTAEGVKARVVSMPSTDAFDKQDAAYRESVLPKAVTARVAVEAGIADYWYKYVGLNGAIVGMTTFGESAPAELLFEEFGFTVDNVVAKAKELL | 2.7 (0.4) mM | 3.9 s⁻¹ | 1440 M⁻¹ s⁻¹ |
| transketolase (TK) (Escherichia coli K-12; A282P/D469T/R520Q/S385Y) (protein, recombinant from plasmid pQR791, purified; homodimer) MSSRKELANAIRALSMDAVQKAKSGHPGAPMGMADIAEVLWRDFLKHNPQNPSWADRDRFVLSNGHGSMLIYSLLHLTGYDLPMEELKNFRQLHSKTPGHPEVGYTAGVETTTGPLGQGIANAVGMAIAEKTLAAQFNRPGHDIVDHYTYAFMGDGCMMEGISHEVCSLAGTLKLGKLIAFYDDNGISIDGHVEGWFTDDTAMRFEAYGWHVIRDIDGHDAASIKRAVEEARAVTDKPSLLMCKTIIGFGSPNKAGTHDSHGAPLGDAEIALTREQLGWKYPPFEIPSEIYAQWDAKEAGQAKESAWNEKFAAYAKAYPQEAAEFTRRMKGEMPSDFDAKAKEFIAKLQANPAKIASRKASQNAIEAFGPLLPEFLGGSADLAPYNLTLWSGSKAINEDAAGNYIHYGVREFGMTAIANGISLHGGFLPYTSTFLMFVEYARNAVRMAALMKQRQVMVYTHDSIGLGETGPTHQPVEQVASLRVTPNMSTWRPCDQVESAVAWKYGVERQDGPTALILSQQNLAQQERTEEQLANIARGGYVLKDCAGQPELIFIATGSEVELAVAAYEKLTAEGVKARVVSMPSTDAFDKQDAAYRESVLPKAVTARVAVEAGIADYWYKYVGLNGAIVGMTTFGESAPAELLFEEFGFTVDNVVAKAKELL | 2.1 (0.2) mM | 3.2 s⁻¹ | 1520 M⁻¹ s⁻¹ |
| transketolase (TK) (Escherichia coli K-12; A282P/D469T/H192P/I365L/R520Q/S385Y) (protein, recombinant from plasmid pQR791, purified; homodimer) MSSRKELANAIRALSMDAVQKAKSGHPGAPMGMADIAEVLWRDFLKHNPQNPSWADRDRFVLSNGHGSMLIYSLLHLTGYDLPMEELKNFRQLHSKTPGHPEVGYTAGVETTTGPLGQGIANAVGMAIAEKTLAAQFNRPGHDIVDHYTYAFMGDGCMMEGISHEVCSLAGTLKLGKLIAFYDDNGISIDGPVEGWFTDDTAMRFEAYGWHVIRDIDGHDAASIKRAVEEARAVTDKPSLLMCKTIIGFGSPNKAGTHDSHGAPLGDAEIALTREQLGWKYPPFEIPSEIYAQWDAKEAGQAKESAWNEKFAAYAKAYPQEAAEFTRRMKGEMPSDFDAKAKEFIAKLQANPAKIASRKASQNALEAFGPLLPEFLGGSADLAPYNLTLWSGSKAINEDAAGNYIHYGVREFGMTAIANGISLHGGFLPYTSTFLMFVEYARNAVRMAALMKQRQVMVYTHDSIGLGETGPTHQPVEQVASLRVTPNMSTWRPCDQVESAVAWKYGVERQDGPTALILSQQNLAQQERTEEQLANIARGGYVLKDCAGQPELIFIATGSEVELAVAAYEKLTAEGVKARVVSMPSTDAFDKQDAAYRESVLPKAVTARVAVEAGIADYWYKYVGLNGAIVGMTTFGESAPAELLFEEFGFTVDNVVAKAKELL | 1.3 (0.4) mM | 2.1 s⁻¹ | 1620 M⁻¹ s⁻¹ |
| transketolase (TK) (Escherichia coli K-12; A282P/D469T/H192P/R520Q/S385Y) (protein, recombinant from plasmid pQR791, purified; homodimer) MSSRKELANAIRALSMDAVQKAKSGHPGAPMGMADIAEVLWRDFLKHNPQNPSWADRDRFVLSNGHGSMLIYSLLHLTGYDLPMEELKNFRQLHSKTPGHPEVGYTAGVETTTGPLGQGIANAVGMAIAEKTLAAQFNRPGHDIVDHYTYAFMGDGCMMEGISHEVCSLAGTLKLGKLIAFYDDNGISIDGPVEGWFTDDTAMRFEAYGWHVIRDIDGHDAASIKRAVEEARAVTDKPSLLMCKTIIGFGSPNKAGTHDSHGAPLGDAEIALTREQLGWKYPPFEIPSEIYAQWDAKEAGQAKESAWNEKFAAYAKAYPQEAAEFTRRMKGEMPSDFDAKAKEFIAKLQANPAKIASRKASQNAIEAFGPLLPEFLGGSADLAPYNLTLWSGSKAINEDAAGNYIHYGVREFGMTAIANGISLHGGFLPYTSTFLMFVEYARNAVRMAALMKQRQVMVYTHDSIGLGETGPTHQPVEQVASLRVTPNMSTWRPCDQVESAVAWKYGVERQDGPTALILSQQNLAQQERTEEQLANIARGGYVLKDCAGQPELIFIATGSEVELAVAAYEKLTAEGVKARVVSMPSTDAFDKQDAAYRESVLPKAVTARVAVEAGIADYWYKYVGLNGAIVGMTTFGESAPAELLFEEFGFTVDNVVAKAKELL | 1.3 (0.2) mM | 2.9 s⁻¹ | 2230 M⁻¹ s⁻¹ |
| transketolase (TK) (Escherichia coli K-12; D469T/H192P/R520Q/S385Y) (protein, recombinant from plasmid pQR791, purified; homodimer) MSSRKELANAIRALSMDAVQKAKSGHPGAPMGMADIAEVLWRDFLKHNPQNPSWADRDRFVLSNGHGSMLIYSLLHLTGYDLPMEELKNFRQLHSKTPGHPEVGYTAGVETTTGPLGQGIANAVGMAIAEKTLAAQFNRPGHDIVDHYTYAFMGDGCMMEGISHEVCSLAGTLKLGKLIAFYDDNGISIDGPVEGWFTDDTAMRFEAYGWHVIRDIDGHDAASIKRAVEEARAVTDKPSLLMCKTIIGFGSPNKAGTHDSHGAPLGDAEIALTREQLGWKYAPFEIPSEIYAQWDAKEAGQAKESAWNEKFAAYAKAYPQEAAEFTRRMKGEMPSDFDAKAKEFIAKLQANPAKIASRKASQNAIEAFGPLLPEFLGGSADLAPYNLTLWSGSKAINEDAAGNYIHYGVREFGMTAIANGISLHGGFLPYTSTFLMFVEYARNAVRMAALMKQRQVMVYTHDSIGLGETGPTHQPVEQVASLRVTPNMSTWRPCDQVESAVAWKYGVERQDGPTALILSQQNLAQQERTEEQLANIARGGYVLKDCAGQPELIFIATGSEVELAVAAYEKLTAEGVKARVVSMPSTDAFDKQDAAYRESVLPKAVTARVAVEAGIADYWYKYVGLNGAIVGMTTFGESAPAELLFEEFGFTVDNVVAKAKELL | 2.2 (0.4) mM | 3.5 s⁻¹ | 1590 M⁻¹ s⁻¹ |
